Experimental data: patent US11814435B2, “Therapeutic antibodies and their uses” (PFIZER INC., priority 2015, dated 2023)

T1: hBCMA (human BCMA) (Homo sapiens, UniProt Q02223)
T1 sequence (Q02223 1-184): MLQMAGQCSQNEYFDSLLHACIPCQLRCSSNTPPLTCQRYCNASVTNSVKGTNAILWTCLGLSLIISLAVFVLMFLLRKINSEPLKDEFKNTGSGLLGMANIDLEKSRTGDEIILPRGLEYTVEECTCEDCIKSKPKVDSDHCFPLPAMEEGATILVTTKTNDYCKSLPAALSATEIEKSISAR


How the values were obtained:
hBCMA (human BCMA) = biological target: T1, hBCMA (human BCMA); test: Kinetics and affinity of hBCMA/human IgG interactions by SPR (Bio-Rad Proteon XPR36); type: binding; conditions: huBCMA
Protocol: All experiments were performed on a Bio-Rad Proteon XPR36 surface Plasmon resonance biosensor (Bio-Rad, Hercules, Calif.). An array of anti-BCMA antibodies was prepared using an amine-coupling method on a Bio-Rad GLC Sensor Chip similar to that described in Abdiche, et al., Anal. Biochem. 411, 139-151 (2011). The analysis temperature for the immobilization was 25° C. and the running buffer was HBS-T+(10 mM HEPES, 150 mM NaCl, 0.05% Tween-20, pH 7.4). Channels were activated in the analyte (horizontal) direction by injecting a mixture of 1 mM ECD and 0.25 mM NHS for 3 minutes at a flow rate of 30 μL/min. IgGs were immobilized on the activated spots by injecting them in the ligand (vertical) direction at 20 μg/mL in 10 mM Acetate pH 4.5 buffer for 1.5 minutes at […]. The activated surfaces were blocked by injecting 1M ethanolamine, pH 8.5 in the analyte direction for 3 minutes at 30 μL/min.
The analysis temperature for the hBCMA binding analysis was 37° C. or 25° C. in a running buffer of HBS-T+, supplemented with 1 mg/mL BSA. A kinetic titration method was employed for the interaction analysis as described in Abdiche, et al. The hBCMA (human BCMA) analyte was injected in the analyte direction using a series of injections from low to high concentration. The concentrations used were 0.08 nM, 0.4 nM, 2 nM, 10 nM and 50 nM (a 5-membered series, with a 5-fold dilution factor and top concentration of 50 nM). The association time for a given analyte dilution was two minutes. Immediately after the 50 nM hBCMA injection, dissociation was monitored for 2 hours. Prior to the hBCMA analyte injections, buffer was injected 5 times using the same association and dissociation times at the hBCMA analyte cycles to prepare a buffer blank sensorgram for double-referencing purposes (double referencing as described in Myszka, J. Mol. Recognit. 12, 279-284 (1999).
The sensorgrams were double-referenced and fit to a 1:1 Langmuir with mass transport kinetic titration model in BIAevaluation Software version 4.1.1 (GE Lifesciences, Piscataway, N.J.). The sensorgrams and fits are shown in FIG. 1, and the kinetics and affinity parameters for various anti-BCMA antibodies of the present invention are shown in Tables 6A-6C.

cyBCMA = test: Kinetics and affinity of cyBCMA/human IgG interactions by SPR (Bio-Rad Proteon XPR36); type: binding, cynomolgus

| Molecule | ka (1/Ms) huBCMA @ 37° C. (hBCMA (human BCMA)) [M⁻¹ s⁻¹] | kd (1/s) huBCMA @37° C. (hBCMA (human BCMA)) [s⁻¹] | kd (1/s) cyBCMA @37° C. (cyBCMA) [s⁻¹] | ka (1/Ms) huBCMA @ 25° C. (hBCMA (human BCMA)) [M⁻¹ s⁻¹] | kd (1/s) huBCMA @25° C. (hBCMA (human BCMA)) [s⁻¹] | kd (1/s) cyBCMA @25° C. (cyBCMA) [s⁻¹] | ka (1/Ms) cyBCMA @ 37° C. (cyBCMA) [M⁻¹ s⁻¹] | ka (1/Ms) cyBCMA @ 25° C. (cyBCMA) [M⁻¹ s⁻¹] |
| --- | --- | --- | --- | --- | --- | --- | --- | --- |
| L3.PY/L3.KF/H3.TAQ: anti-BCMA antibody (antibody, V domains shown) VH: EVQLLESGGGLVQPGGSLRLSCAASGFTFGSYAMTWVRQAPGKGLEWVSAISGSGGNTFYADSVKGRFTISRDNSKNTLYLQMNSLRAEDTAVYYCTRVSPIAAQMDYWGQGTLVTVSS VL: EIVLTQSPGTLSLSPGERATLSCRASQSVSSSYLAWYQQKPGQAPRLLIYGASSRATGIPDRFSGSGSGTDFTLTISRLEPEDFAVYYCKFYPYPPSFTFGQGTKVEIK | 2.82e+06 | 0.00162 | 0.00191 |  |  |  | 2.01e+06 |  |
| L1.GDF/L3.KW/H3.AL: anti-BCMA antibody (antibody, V domains shown) VH: EVQLLESGGGLVQPGGSLRLSCAASGFTFGSYAMTWVRQAPGKGLEWVSAISGSGGNTFYADSVKGRFTISRDNSKNTLYLQMNSLRAEDTAVYYCARVSPIAALMDYWGQGTLVTVSS VL: EIVLTQSPGTLSLSPGERATLSCRASQSVGDFYLAWYQQKPGQAPRLLIYGASSRATGIPDRFSGSGSGTDFTLTISRLEPEDFAVYYCKHYGWPPSFTFGQGTKVEIK |  |  |  | 445000 | 0.0039 | 0.018 |  | 318000 |
| L1.LGF/L3.KW/H3.AP: anti-BCMA antibody (antibody, V domains shown) VH: EVQLLESGGGLVQPGGSLRLSCAASGFTFGSYAMTWVRQAPGKGLEWVSAISGSGGNTFYADSVKGRFTISRDNSKNTLYLQMNSLRAEDTAVYYCARVSPIAAPMDYWGQGTLVTVSS VL: EIVLTQSPGTLSLSPGERATLSCRASQSLGSFYLAWYQQKPGQAPRLLIYGASSRATGIPDRFSGSGSGTDFTLTISRLEPEDFAVYYCKHYGWPPSFTFGQGTKVEIK |  |  |  | 928000 | 0.00227 | 0.0154 |  | 554000 |
| L1.LGF/L3.NY/H3.AL: anti-BCMA antibody (antibody, V domains shown) VH: EVQLLESGGGLVQPGGSLRLSCAASGFTFGSYAMTWVRQAPGKGLEWVSAISGSGGNTFYADSVKGRFTISRDNSKNTLYLQMNSLRAEDTAVYYCARVSPIAALMDYWGQGTLVTVSS VL: EIVLTQSPGTLSLSPGERATLSCRASQSLGSFYLAWYQQKPGQAPRLLIYGASSRATGIPDRFSGSGSGTDFTLTISRLEPEDFAVYYCQHYNYPPSFTFGQGTKVEIK |  |  |  | 763000 | 0.00097 | 0.0148 |  | 635000 |
| L1.LGF/L3.KW/H3.AL: anti-BCMA antibody (antibody, V domains shown) VH: EVQLLESGGGLVQPGGSLRLSCAASGFTFGSYAMTWVRQAPGKGLEWVSAISGSGGNTFYADSVKGRFTISRDNSKNTLYLQMNSLRAEDTAVYYCARVSPIAALMDYWGQGTLVTVSS VL: EIVLTQSPGTLSLSPGERATLSCRASQSLGSFYLAWYQQKPGQAPRLLIYGASSRATGIPDRFSGSGSGTDFTLTISRLEPEDFAVYYCKHYGWPPSFTFGQGTKVEIK |  |  |  | 428000 | 0.00123 | 0.0121 |  | 290000 |
| L1.GDF/L3.NY/H3.AP: anti-BCMA antibody (antibody, V domains shown) VH: EVQLLESGGGLVQPGGSLRLSCAASGFTFGSYAMTWVRQAPGKGLEWVSAISGSGGNTFYADSVKGRFTISRDNSKNTLYLQMNSLRAEDTAVYYCARVSPIAAPMDYWGQGTLVTVSS VL: EIVLTQSPGTLSLSPGERATLSCRASQSVGDFYLAWYQQKPGQAPRLLIYGASSRATGIPDRFSGSGSGTDFTLTISRLEPEDFAVYYCQHYNYPPSFTFGQGTKVEIK |  |  |  | 1.41e+06 | 0.00141 | 0.00702 |  | 1.36e+06 |

More lines, main results first:

| ka (1/Ms) huBCMA @ 37° C. (hBCMA (human BCMA)) [M⁻¹ s⁻¹] | kd (1/s) huBCMA @37° C. (hBCMA (human BCMA)) [s⁻¹] | kd (1/s) cyBCMA @37° C. (cyBCMA) [s⁻¹] | ka (1/Ms) huBCMA @ 25° C. (hBCMA (human BCMA)) [M⁻¹ s⁻¹] | kd (1/s) huBCMA @25° C. (hBCMA (human BCMA)) [s⁻¹] | kd (1/s) cyBCMA @25° C. (cyBCMA) [s⁻¹] | Molecule | ka (1/Ms) cyBCMA @ 37° C. (cyBCMA) [M⁻¹ s⁻¹] | ka (1/Ms) cyBCMA @ 25° C. (cyBCMA) [M⁻¹ s⁻¹] |
| --- | --- | --- | --- | --- | --- | --- | --- | --- |
| 3.12e+06 | 0.00147 | 0.00796 |  |  |  | L3.PY/L3.KF/H3.YA: anti-BCMA antibody (antibody, V domains shown) VH: EVQLLESGGGLVQPGGSLRLSCAASGFTFGSYAMTWVRQAPGKGLEWVSAISGSGGNTFYADSVKGRFTISRDNSKNTLYLQMNSLRAEDTAVYYCARVSPIYAGMDYWGQGTLVTVSS VL: EIVLTQSPGTLSLSPGERATLSCRASQSVSSSYLAWYQQKPGQAPRLLIYGASSRATGIPDRFSGSGSGTDFTLTISRLEPEDFAVYYCKFYPYPPSFTFGQGTKVEIK | 2.1e+06 |  |
|  |  |  | 1.17e+06 | 0.00461 | 0.0203 | L1.GDF/L3.KW/H3.AP: anti-BCMA antibody (antibody, V domains shown) VH: EVQLLESGGGLVQPGGSLRLSCAASGFTFGSYAMTWVRQAPGKGLEWVSAISGSGGNTFYADSVKGRFTISRDNSKNTLYLQMNSLRAEDTAVYYCARVSPIAAPMDYWGQGTLVTVSS VL: EIVLTQSPGTLSLSPGERATLSCRASQSVGDFYLAWYQQKPGQAPRLLIYGASSRATGIPDRFSGSGSGTDFTLTISRLEPEDFAVYYCKHYGWPPSFTFGQGTKVEIK |  | 814000 |
|  |  |  | 457000 | 0.000969 | 0.013 | L1.LGF/L3.PY/H3.AP: anti-BCMA antibody (antibody, V domains shown) VH: EVQLLESGGGLVQPGGSLRLSCAASGFTFGSYAMTWVRQAPGKGLEWVSAISGSGGNTFYADSVKGRFTISRDNSKNTLYLQMNSLRAEDTAVYYCARVSPIAAPMDYWGQGTLVTVSS VL: EIVLTQSPGTLSLSPGERATLSCRASQSLGSFYLAWYQQKPGQAPRLLIYGASSRATGIPDRFSGSGSGTDFTLTISRLEPEDFAVYYCQHYPYPPSFTFGQGTKVEIK |  | 364000 |
|  |  |  | 907000 | 0.00403 | 0.0219 | L1.GDF/L3.NY/H3.AL: anti-BCMA antibody (antibody, V domains shown) VH: EVQLLESGGGLVQPGGSLRLSCAASGFTFGSYAMTWVRQAPGKGLEWVSAISGSGGNTFYADSVKGRFTISRDNSKNTLYLQMNSLRAEDTAVYYCARVSPIAALMDYWGQGTLVTVSS VL: EIVLTQSPGTLSLSPGERATLSCRASQSVGDFYLAWYQQKPGQAPRLLIYGASSRATGIPDRFSGSGSGTDFTLTISRLEPEDFAVYYCQHYNYPPSFTFGQGTKVEIK |  | 900000 |
| 3.07e+06 | 0.00155 | 0.00564 |  |  |  | L3.PY/L3.KF/H3.AE: anti-BCMA antibody (antibody, V domains shown) VH: EVQLLESGGGLVQPGGSLRLSCAASGFTFGSYAMTWVRQAPGKGLEWVSAISGSGGNTFYADSVKGRFTISRDNSKNTLYLQMNSLRAEDTAVYYCARVSPIAAEMDYWGQGTLVTVSS VL: EIVLTQSPGTLSLSPGERATLSCRASQSVSSSYLAWYQQKPGQAPRLLIYGASSRATGIPDRFSGSGSGTDFTLTISRLEPEDFAVYYCKFYPYPPSFTFGQGTKVEIK | 1.85e+06 |  |
|  |  |  | 936000 | 0.000533 | 0.00557 | L1.LGF/L3.NY/H3.AP: anti-BCMA antibody (antibody, V domains shown) VH: EVQLLESGGGLVQPGGSLRLSCAASGFTFGSYAMTWVRQAPGKGLEWVSAISGSGGNTFYADSVKGRFTISRDNSKNTLYLQMNSLRAEDTAVYYCARVSPIAAPMDYWGQGTLVTVSS VL: EIVLTQSPGTLSLSPGERATLSCRASQSLGSFYLAWYQQKPGQAPRLLIYGASSRATGIPDRFSGSGSGTDFTLTISRLEPEDFAVYYCQHYNYPPSFTFGQGTKVEIK |  | 830000 |
